The target in experiment [1] is 26S proteasome purified from rpt1-RK ubp6Δ hul5Δ yeast, Protein A-tagged (budding yeast) (UniProt P33299).
Experiment [2] addresses 26S proteasome purified from ubp6Δ hul5Δ yeast (nominally wild-type), Protein A-tagged (budding yeast) (UniProt P33299). As to the kind of experiment: Ub-AMC hydrolysis (activation of Ubp6 as a proxy for the association); Ubp6 1.25 nM to 60 nM titrated on 1 nM proteasome with 1 μM Ub-AMC; rates of Ubp6 alone and proteasome alone subtracted; hyperbolic fit; 50 mM Tris-HCl pH 7.5, 1 mM EDTA, 1 mM ATP, 5 mM MgCl2, 1 mM DTT, 1 mg/mL ovalbumin.

The target in experiment [3] is 26S proteasome purified from rpt1-RK ubp6Δ hul5Δ yeast, Protein A-tagged (budding yeast) (UniProt P33299). The description is as above.
Experiment [4] addresses 26S proteasome purified from ubp6Δ hul5Δ yeast (nominally wild-type), Protein A-tagged (budding yeast) (UniProt P33299).
Experiment [5] concerns the target T1, Ubp6 (wild-type, His6-tagged) (budding yeast, UniProt P43593 1-499).
T1 construct: Ubp6, deubiquitinating enzyme, budding yeast; N-terminal UBL domain and C-terminal catalytic domain (residues 104 to 499); In the cryo-EM rows Ubp6 stood as the UbVS adduct; only the catalytic domain (104-499) was modelled; also called His6-Ubp6; wild-type Ubp6; source: E. coli Rosetta (DE3), purified (Ni-NTA)
T1 sequence (looked up): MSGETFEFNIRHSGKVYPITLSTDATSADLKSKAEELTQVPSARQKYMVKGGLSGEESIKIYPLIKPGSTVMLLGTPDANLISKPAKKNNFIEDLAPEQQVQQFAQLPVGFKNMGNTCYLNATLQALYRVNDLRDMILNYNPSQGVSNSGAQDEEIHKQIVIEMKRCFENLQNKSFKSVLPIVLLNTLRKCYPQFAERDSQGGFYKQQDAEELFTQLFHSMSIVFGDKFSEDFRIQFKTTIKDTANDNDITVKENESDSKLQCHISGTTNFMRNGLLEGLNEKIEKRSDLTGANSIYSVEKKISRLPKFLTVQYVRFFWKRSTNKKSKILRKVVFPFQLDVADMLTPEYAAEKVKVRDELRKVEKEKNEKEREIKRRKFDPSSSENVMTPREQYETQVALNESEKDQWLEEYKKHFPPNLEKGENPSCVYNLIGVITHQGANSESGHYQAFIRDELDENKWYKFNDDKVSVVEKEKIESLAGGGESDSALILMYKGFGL
The experiment can be described thus: cryo-EM structure; 26S proteasomes and Ubp6-UbVS mixed 1:4 (400 nM 26S or 26S Rpt1-RK, 1.6 μM Ubp6-UbVS), 20 min on ice; 20 mM HEPES-NaOH pH 7.4, 40 mM NaCl, 4 mM DTT, 4 mM MgCl2, 4 mM ATP, ~25% sucrose; maps at 6 to 7 Å, models by flexible fitting. The conditions noted are these: both partners purified.

Experiment [6] addresses T2, Rpt6 (proteasome subunit) (budding yeast, UniProt Q01939 1-405).
T2 construct: Rpt6, ATPase of the regulatory particle, budding yeast; Stood in the assay as a subunit of m6; source: subunit of the 26S proteasome (3X FLAG) purified from yeast
T2 sequence: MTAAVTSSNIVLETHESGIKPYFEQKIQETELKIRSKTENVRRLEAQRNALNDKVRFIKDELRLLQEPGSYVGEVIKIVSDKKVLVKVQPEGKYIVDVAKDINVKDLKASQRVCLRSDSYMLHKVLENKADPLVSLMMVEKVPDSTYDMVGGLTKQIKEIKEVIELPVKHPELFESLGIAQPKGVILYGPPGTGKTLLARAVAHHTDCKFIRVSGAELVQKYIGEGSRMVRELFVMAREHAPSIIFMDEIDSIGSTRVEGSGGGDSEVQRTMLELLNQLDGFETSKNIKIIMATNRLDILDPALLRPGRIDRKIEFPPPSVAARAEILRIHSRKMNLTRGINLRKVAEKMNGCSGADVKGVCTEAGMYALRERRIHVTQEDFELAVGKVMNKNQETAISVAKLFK
The experiment is described as above. The conditions noted are these: both partners purified.

Consider six molecules from publication PMC8837689, “Allosteric control of Ubp6 and the proteasome via a bidirectional switch” (Nature Communications, 2022).

Molecule “Ubp6 (wild-type, His6-tagged) (from UniProt P43593 1-499) (enzyme)” returned a capacity of the Rpt1-RK proteasome to activate wild-type Ubp6 (Ub-AMC hydrolysis), loss relative to wild-type proteasome in experiment [1] of 97 % lost. Also, the results for the dissociation constant Kd in experiment [2] and in experiment [3] were 3.3 nM and 2 nM, respectively.

As for “Ubp6-I329A L330A (from UniProt P43593 97-499) (enzyme)”, the proteasome-activated deubiquitinating activity (Ub-AMC hydrolysis) of Ubp6-AA relative to wild-type Ubp6 in experiment [4] is 2 % of WT. Besides, the Kd – broadly, the equilibrium constant for the complex coming apart – in experiment [2] stood at 4 nM.

B1: Rpt1 (proteasome subunit) (natural protein, budding yeast)
chain: MPPKEDWEKYKAPLEDDDKKPDDDKIVPLTEGDIQVLKSYGAAPYAAKLKQTENDLKDIEARIKEKAGVKESDTGLAPSHLWDIMGDRQRLGEEHPLQVARCTKIIKGNGESDETTTDNNNSGNSNSNSNQQSTDADEDDEDAKYVINLKQIAKFVVGLGERVSPTDIEEGMRVGVDRSKYNIELPLPPRIDPSVTMMTVEEKPDVTYSDVGGCKDQIEKLREVVELPLLSPERFATLGIDPPKGILLYGPPGTGKTLCARAVANRTDATFIRVIGSELVQKYVGEGARMVRELFEMARTKKACIIFFDEIDAVGGARFDDGAGGDNEVQRTMLELITQLDGFDPRGNIKVMFATNRPNTLDPALLRPGRIDRKVEFSLPDLEGRANIFRIHSKSMSVERGIRWELISRLCPNSTGAELRSVCTEAGMFAIRARRKVATEKDFLKAVDKVISGYKKFSSTSRYMQYN
notes: Rpt1, ATPase of the regulatory particle, budding yeast; Stood in the assays as a subunit of m6 or m10; source: subunit of the 26S proteasome (3X FLAG) or RP (Protein A) purified from yeast
Take B1: the binding result in experiment [5] is given as “binds”.

B2: Rpt1-S164R T166K (natural protein, budding yeast)
chain: MPPKEDWEKYKAPLEDDDKKPDDDKIVPLTEGDIQVLKSYGAAPYAAKLKQTENDLKDIEARIKEKAGVKESDTGLAPSHLWDIMGDRQRLGEEHPLQVARCTKIIKGNGESDETTTDNNNSGNSNSNSNQQSTDADEDDEDAKYVINLKQIAKFVVGLGERVRPKDIEEGMRVGVDRSKYNIELPLPPRIDPSVTMMTVEEKPDVTYSDVGGCKDQIEKLREVVELPLLSPERFATLGIDPPKGILLYGPPGTGKTLCARAVANRTDATFIRVIGSELVQKYVGEGARMVRELFEMARTKKACIIFFDEIDAVGGARFDDGAGGDNEVQRTMLELITQLDGFDPRGNIKVMFATNRPNTLDPALLRPGRIDRKVEFSLPDLEGRANIFRIHSKSMSVERGIRWELISRLCPNSTGAELRSVCTEAGMFAIRARRKVATEKDFLKAVDKVISGYKKFSSTSRYMQYN
notes: Rpt1, ATPase of the regulatory particle, budding yeast, with S164R and T166K; Stood in the assay as a subunit of m7; also called Rpt1-RK; rpt1-RK; source: subunit of the Rpt1-RK 26S proteasome (3X FLAG) purified from yeast
With B2, the binding result in experiment [5] was “binds”.

B3: α3 subunit of the CP α ring (natural protein, budding yeast)
chain: MGSRRYDSRTTIFSPEGRLYQVEYALESISHAGTAIGIMASDGIVLAAERKVTSTLLEQDTSTEKLYKLNDKIAVAVAGLTADAEILINTARIHAQNYLKTYNEDIPVEILVRRLSDIKQGYTQHGGLRPFGVSFIYAGYDDRYGYQLYTSNPSGNYTGWKAISVGANTSAAQTLLQMDYKDDMKVDDAIELALKTLSKTTDSSALTYDRLEFATIRKGANDGEVYQKIFKPQEIKDILVKTGITKKDEDEEADEDMK
notes: alpha3 subunit of the core particle alpha ring, budding yeast; Stood in the assay as a subunit of m6; source: subunit of the 26S proteasome (3X FLAG) purified from yeast
On to B3, for which the binding result in experiment [6] is listed as “binds”.

B4: α2 subunit of the CP α ring (natural protein, budding yeast)
chain: MTDRYSFSLTTFSPSGKLGQIDYALTAVKQGVTSLGIKATNGVVIATEKKSSSPLAMSETLSKVSLLTPDIGAVYSGMGPDYRVLVDKSRKVAHTSYKRIYGEYPPTKLLVSEVAKIMQEATQSGGVRPFGVSLLIAGHDEFNGFSLYQVDPSGSYFPWKATAIGKGSVAAKTFLEKRWNDELELEDAIHIALLTLKESVEGEFNGDTIELAIIGDENPDLLGYTGIPTDKGPRFRKLTSQEINDRLEAL
notes: alpha2 subunit of the core particle alpha ring, budding yeast; Stood in the assay as a subunit of m6; source: subunit of the 26S proteasome (3X FLAG) purified from yeast
Take B4: the binding result in experiment [6] was “binds”.
